Assay results published in patent US20230012273A1 (Boehringer Ingelheim, published 2023).

Columns and labels:
[1] = biological target: T1, full-length cynomolgus SIRPα (NP_001271679) on CHO cells, clone HC6 (cynomolgus monkey, UniProt A0A2K5VYQ9); assay: flow cytometry, CHO cells
T1 construct: whole, on cells; also called NP_001271679 Clone HC6
T1 sequence: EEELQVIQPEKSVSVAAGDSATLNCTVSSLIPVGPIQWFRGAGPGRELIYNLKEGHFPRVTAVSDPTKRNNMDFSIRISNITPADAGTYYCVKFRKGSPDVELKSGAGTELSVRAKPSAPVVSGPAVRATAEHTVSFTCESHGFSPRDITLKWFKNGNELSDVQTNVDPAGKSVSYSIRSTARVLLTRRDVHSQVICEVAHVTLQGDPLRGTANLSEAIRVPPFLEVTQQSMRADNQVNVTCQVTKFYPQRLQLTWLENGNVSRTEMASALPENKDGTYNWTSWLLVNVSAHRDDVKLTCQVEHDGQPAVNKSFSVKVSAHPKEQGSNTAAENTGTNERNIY
Experimental: Antibody binding to cells expressing cynomolgus (cyno) SIRPα was evaluated by flow cytometry. CHO-K1 cells expressing full-length cyno SIRPα; derived from protein sequence accession numbers (A) EGM-02252; (B) XP_015313155; or (C) NP_001271679, are blocked with donkey IgG and incubated on ice with increasing concentrations of antibodies for 60 minutes, washed and stained with AF647-conjugated donkey F(ab′)₂ anti-human IgG secondary reagent. Cells are washed, fixed, and analyzed by flow cytometry. Median fluorescent intensity is determined and used as a measure of antibody binding.

[2] = biological target: T2, full-length human SIRPβ1 (NP_006056.2) on cells (human, UniProt O00241 30-398); assay: flow cytometry, U937 SIRPα-KO transfectants
T2 construct: also called β1 WT
T2 sequence (O00241 30-398): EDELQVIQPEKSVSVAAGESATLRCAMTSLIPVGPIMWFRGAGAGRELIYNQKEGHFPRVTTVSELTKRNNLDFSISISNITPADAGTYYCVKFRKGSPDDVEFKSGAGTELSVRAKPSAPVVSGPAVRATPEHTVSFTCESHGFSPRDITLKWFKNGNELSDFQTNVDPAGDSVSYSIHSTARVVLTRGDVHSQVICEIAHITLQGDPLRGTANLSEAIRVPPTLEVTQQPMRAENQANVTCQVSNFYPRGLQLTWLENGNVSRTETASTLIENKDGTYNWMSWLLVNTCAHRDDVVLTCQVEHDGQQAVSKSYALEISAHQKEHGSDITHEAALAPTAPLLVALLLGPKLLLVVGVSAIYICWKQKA
Experimental: (§1) Antibody binding to cells expressing full-length human SIRPβ1 (NP_006056.2) and SIRPβL (NP_001129316.1) is evaluated by flow cytometry. SIRPβ1- or SIRPβL-expressing U937^{SIRPα KO} cells are blocked with donkey IgG and incubated on ice with increasing concentrations of antibodies for 60 minutes, washed and stained with AF647-conjugated donkey F(ab′)₂ anti-human IgG secondary reagent. Cells are washed, fixed, and analyzed by flow cytometry. Median fluorescent intensity is determined and used as a measure of antibody binding.

[3] = biological target: T2, full-length human SIRPβ1 (NP_006056.2) …; assay: flow cytometry, Expi-CHO cells
Experimental: (§2) These cells are blocked with donkey IgG and incubated on ice with increasing concentrations of antibodies for 60 minutes, washed and stained with AF647-conjugated donkey F(ab′)₂ anti-human IgG antibodies. Stained cells are washed, fixed, and analyzed by flow cytometry. Median fluorescent intensity is determined and used as a measure of antibody binding.

[4] = biological target: T3, full-length human SIRPγ EN→DD on Expi-CHO cells (human, UniProt Q9P1W8 29-387); assay: flow cytometry, Expi-CHO cells
T3 construct: the entry already carries the change (PENV to PDDV)
T3 chain: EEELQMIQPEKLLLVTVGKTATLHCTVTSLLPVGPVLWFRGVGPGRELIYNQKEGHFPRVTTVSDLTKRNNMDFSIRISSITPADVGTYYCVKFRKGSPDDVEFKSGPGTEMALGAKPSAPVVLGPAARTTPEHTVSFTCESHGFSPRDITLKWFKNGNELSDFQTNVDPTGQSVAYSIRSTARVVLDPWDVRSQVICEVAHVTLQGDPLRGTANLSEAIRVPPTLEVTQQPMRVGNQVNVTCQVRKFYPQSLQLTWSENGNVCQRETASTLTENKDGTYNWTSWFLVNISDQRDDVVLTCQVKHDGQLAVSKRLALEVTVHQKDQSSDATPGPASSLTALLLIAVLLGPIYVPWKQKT
Experimental: as §2, with “Expi-CHO parental cells are transduced with lentiviruses containing either full-length wild-type human SIRPγ ([…]) or full-length human SIRPγ with amino acid point mutations (Table 64) and sorted to achieve matching expression levels. These” for “These”

[5] = biological target: T4, full-length human SIRPαV1 DD→EN on Expi-CHO cells (human, UniProt P78324 31-504); assay: flow cytometry, Expi-CHO cells
T4 construct: the entry already carries the change (PDDV to PENV)
T4 sequence (P78324 31-504 D130E/D131N): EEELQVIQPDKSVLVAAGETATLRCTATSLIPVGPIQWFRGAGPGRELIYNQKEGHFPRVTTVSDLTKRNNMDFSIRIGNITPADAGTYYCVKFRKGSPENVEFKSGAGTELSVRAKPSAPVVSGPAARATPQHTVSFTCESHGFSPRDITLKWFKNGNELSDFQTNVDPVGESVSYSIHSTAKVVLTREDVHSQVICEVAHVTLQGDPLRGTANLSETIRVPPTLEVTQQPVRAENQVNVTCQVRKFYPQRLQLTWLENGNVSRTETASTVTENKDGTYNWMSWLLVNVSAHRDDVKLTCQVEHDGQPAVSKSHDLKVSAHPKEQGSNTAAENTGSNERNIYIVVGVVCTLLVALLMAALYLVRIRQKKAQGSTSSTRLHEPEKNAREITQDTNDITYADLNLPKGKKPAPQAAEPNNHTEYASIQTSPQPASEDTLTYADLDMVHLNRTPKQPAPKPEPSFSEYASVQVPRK
Experimental: as §2, with “Expi-CHO parental cells are transduced with lentiviruses containing either full-length wild-type human SIRPαV1 allele (NP_542970.1) or full-length human SIRPαV1 with amino acid point mutations (Table 56) and sorted to achieve matching expression levels. These” for “These”

[6] = biological target: T5, full-length human SIRPαV1 D→N on Expi-CHO cells (human, UniProt P78324 31-504); assay: flow cytometry, Expi-CHO cells
T5 construct: the entry already carries the change (PDDV to PDNV)
T5 sequence (P78324 31-504 D131N): as the sequence (P78324 31-504 D130E/D131N) above, with E100D counted along it
Experimental: as §2, with “Expi-CHO parental cells are transduced with lentiviruses containing either full-length wild-type human SIRPαV1 allele (NP_542970.1) or full-length human SIRPαV1 with amino acid point mutations (Table 56) and sorted to achieve matching expression levels. These” for “These”

[7] = biological target: T6, full-length human SIRPβL (NP_001129316.1) on cells (human, UniProt Q5TFQ8 30-398); assay: flow cytometry, U937 SIRPα-KO transfectants
T6 construct: one molecule for U937 SIRPα-KO transfectants (NP_001129316.1) and Expi-CHO transfectants (Q5TFQ8); also called SIRPβ1v3; βL WT
T6 sequence (Q5TFQ8 30-398): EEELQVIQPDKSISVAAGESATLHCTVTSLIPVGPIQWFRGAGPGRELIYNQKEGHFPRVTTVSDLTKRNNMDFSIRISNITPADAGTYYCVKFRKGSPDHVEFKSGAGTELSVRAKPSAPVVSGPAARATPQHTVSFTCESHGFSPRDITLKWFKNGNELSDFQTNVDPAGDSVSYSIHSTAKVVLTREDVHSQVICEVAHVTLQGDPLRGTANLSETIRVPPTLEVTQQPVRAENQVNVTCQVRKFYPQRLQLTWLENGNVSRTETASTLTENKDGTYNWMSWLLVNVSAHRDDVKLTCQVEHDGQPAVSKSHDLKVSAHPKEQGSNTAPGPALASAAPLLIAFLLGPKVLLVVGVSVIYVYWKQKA
Experimental: as §1

[8] = biological target: T6, full-length human SIRPβL …; assay: flow cytometry, Expi-CHO cells
Experimental: as §2, with “Expi-CHO parental cells are transduced with lentiviruses containing either full-length wild-type human SIRPβL (Q5TFQ8) or full-length human SIRPβL with a single amino acid point mutation (Table 62) and sorted to achieve matching expression levels. These” for “These”
A single amino acid substitution (H→D) introduced within the loop region maintained, strengthened, or facilitated antibody binding to these cells (FIG. 34B, Table 63).

Row | Binder | EC50 [1] [nM] | EC50 [2] [nM] | EC50 [3] [nM] | EC50 [4] [nM] | EC50 [5] [nM] | EC50 [6] [nM] | EC50 [7] [nM] | EC50 [8] [nM]
1 | Antibody A (antibody, human IgG1, kappa, L234A L235A) heavy: not shown light: DIQMTQSPSSLSASVGDRVTITCRASQDINNYLAWFQQKPGKAPKSLIYTASSLHSGVPSKFSGSGSGTDFTLTISSLQPEDFATYYCQQYVSYPYTFGQGTKLEIKRTVAAPSVFIFPPSDEQLKSGTASVVCLLNNFYPREAKVQWKVDNALQSGNSQESVTEQDSKDSTYSLSSTLTLSKADYEKHKVYACEVTHQGLSSPVTKSFNRGEC | 4.5 | 0.2 | 1.6 | 0.6 |  |  |  | 
2 | Antibody A10 (antibody, human IgG1, kappa, L234A L235A) heavy: not shown light: DIQMTQSPSSLSASVGDRVTITCRASQDINNYLAWFQQKPGKAPKSLIYTASSLHSGVPSKFSGSGSGTDFTLTISSLQPEDFATYYCQQYVSYPYTFGQGTKLEIKRTVAAPSVFIFPPSDEQLKSGTASVVCLLNNFYPREAKVQWKVDNALQSGNSQESVTEQDSKDSTYSLSSTLTLSKADYEKHKVYACEVTHQGLSSPVTKSFNRGEC | 3.7 | 0.2 | 1.6 | 0.7 |  |  |  | 
3 | Antibody C (antibody, human IgG1, kappa, L234A L235A, V domains shown) VH: EVQLVESGGGLVQPGGSLRLSCAASGFTFSSYDMHWVRQATGKGLEWVSVIGIAGDTYYPGSVKGRFTISRENAKNSLYLQMNSLRVGDTAVYYCARGGSWDDAFDIWGQGTMVTVSS VL: DIQMTQSPSSLSASIGDKVTITCRASQDINNYLAWFQQKPGKAPKSLIYTASSLQSGVPSKFSGSGSGTDFTLTISSLQPEDFATYYCQQYVSYPYTFGQGTKLEIKR |  | 0.5 | 0.2 |  | 1.1 | 2.7 |  | 
4 | Antibody B (antibody, human IgG1, kappa, L234A L235A, V domains shown) VH: QVQLVQSGAEVKKPGASVKVSCKASGYTFTGNYMHWVRQAPGQGLEWMGWINPNSGGTNYAQKFQGRVTMTRDTSISTAYMELSRLRSDDTAVYYCVSGSGWYENYYYYGMDVWGQGTTVTVSS VL: DIQMTQSPSSVSASVGDRVTITCRASQGISSWLAWYQQKPGKAPKLLIYAESSLQSGVPSRFSGSGSGTDFTLTISSLQPEDFATYYCQQANSFPLTFGGGTKVEIKR |  |  |  | 5.3 |  |  |  | 
5 | Antibody D (antibody, human IgG1, kappa, L234A L235A, V domains shown) VH: EVQLVESGGGLVQPGGSLRLSCAASGFTFSSFDMHWVRQPTGKGLEWVSTIGIAGDTYFPGSVKGRFTISRENAKNSLYLQMNSLRAGDTAVYYCARGGNWDDALDIWGQGTMVTVSS VL: DIQMTQSPSSLSASVGDRVTITCRASQDINNYLAWFQQKPGKAPKSLIYTASSLQSGVPSKFSGSGSGTDFTLTISSLQPEDFATYYCQQYNTYPYTFGQGTKLEIKR |  | 0.4 | 0.2 | 0.3 | 6.6 | 9.6 |  | 
6 | Antibody E (antibody, human IgG1, kappa, L234A L235A) heavy: not shown light: DIVMTQSPLSLPVTPGEPASISCKSSQSLLYSNGYNYLDWYLQRPGQSPQLLIYLGSNRASGVPDRFSGSGSGTDFTLKISRVEAEDVGVFYCMQALQTPLTFGGGTKVEIKRTVAAPSVFIFPPSDEQLKSGTASVVCLLNNFYPREAKVQWKVDNALQSGNSQESVTEQDSKDSTYSLSSTLTLSKADYEKHKVYACEVTHQGLSSPVTKSFNRGEC |  |  |  |  | 0.4 | 0.4 | 0.3 | 1
7 | Antibody E22 (antibody, human IgG1, kappa, L234A L235A, V domains shown) VH: QVQLQESGPGLVKPSETLSLTCTVSGGSIRDYYWSWIRQPPGKGLEWIGFIYYNGRTFYQSSLKSRVTISLDTSKNQFSLKMTSVTAADTAVYYCARVRAYSGIGLDGTDVWGQGTTVTVSS VL: DIVMTQSPLSLPVTPGEPASISCRSSQSLLYSTGYTYLDWYLQRPGQSPQLLIYGGSSRASGVPDRFSGSGSGTDFTLKISRVEAEDVGVFYCGQALQTPLTFGQGTKVEIKR |  |  |  |  | 0.6 | 0.8 | 0.6 | 1.2
8 | Anti-SIRPα antibody KWAR23 (antibody, V domains shown) VH: EVQLQQSGAELVKPGASVKLSCTASGFNIKDYYIHWVQQRTEQGLEWIGRIDPEDGETKYAPKFQDKATITADTSSNTAYLHLSSLTSEDTAVYYCARWGAYWGQGTLVTVSS VL: QIVLTQSPAIMSASPGEKVTLTCSASSSVSSSYLYWYQQKPGSSPKLWIYSTSNLASGVPARFSGSGSGTSYSLTISSMEAEDAASYFCHQWSSYPRTFGAGTKLELK | 2 | 0.2 | 0.2 | 0.3 | 0.2 | 0.2 | 0.2 | 1
